± gives the standard deviation.

The data set is described as follows: protein stability index of a GFP-peptide fusion (GPS, HEK-293T) (PSI 1-6); higher = more stable.
Setting [1] is: treatment: DMSO, c terminus: a fixed tail appended.
Setting [2] is: treatment: MLN4924 1 uM, 8 h, c terminus: a fixed tail appended.
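Further: 24-mer peptide tiles fused after GFP, lentivirally expressed, FACS-sorted into six equal bins by GFP/DsRed ratio, decoded by Illumina sequencing, PSI is the read-weighted mean bin number.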

For EILNFNQYYEACRKAAKSLIKLGL [ACSBG2], the protein stability index by setting is: under setting [1], 1.91 ± 0.39; under setting [2], 2.92 ± 1.3.

Turning to EKASWLGEQPQFWSKTQVLDWISY [ELF3], the protein stability index under setting [1] is 2.33 ± 0.3 and the protein stability index under setting [2] was 2.16 ± 0.096.

As to EKDLVGLAQIAEVLEMFDLRMMVE [RHOBTB1], the protein stability index came out at 2.46 ± 0.21 under setting [1] and 2.22 ± 0.38 under setting [2].

EKEELLQLSIERGKVLQNKQAEIC [CCDC89] returned a protein stability index under setting [1] of 4.44 ± 0.27 and a protein stability index under setting [2] of 4.68 ± 0.17.

Consider EKEIPVLNELPVPMVARYIRINPQ [CPXM2], for which the protein stability index worked out at 3.16 ± 0.26 under setting [1] and 3.25 ± 0.18 under setting [2].

In the case of ELCVKLMFLHPVDYGRKAEELLWR [SMG5], the protein stability index under setting [1] was 2.41 ± 0.7 and the protein stability index under setting [2] turned out to be 2.33 ± 0.89.

Turning to ELHRRLDEEQQVLLSRLEEEEQDI [TRIM39], the protein stability index turned out to be 5.426 ± 0.033 under setting [1] and 5.49 ± 0.17 under setting [2].

As to ELIKWRAAIVVNGHGMTPLKVAAE [FEM1B], the protein stability index by setting is: under setting [1], 2.64 ± 0.55; under setting [2], 2.15 ± 0.33.

For the sequence ELQEKQKNEKLISLQEQLQRFLKK [TAF7L], the protein stability index was 3.36 ± 0.33 under setting [1] and 3.39 ± 0.15 under setting [2].

Consider ELQIELLRETKRKYESVLQLGRAL [ARFIP2], for which the protein stability index stood at 2.54 ± 0.12 under setting [1] and 2.55 ± 0.23 under setting [2].

Consider ELVVIIGWAKHIPGFSTLSLADQM [ESRRG], for which the protein stability index amounted to 3.19 ± 0.31 under setting [1] and 2.67 ± 0.77 under setting [2].

Take EMKEFSSQLAGQVNVEMDAAPGVD [KRT15]: the protein stability index under setting [1] was determined as 5.29 ± 0.24 and the protein stability index under setting [2] came out at 5.07 ± 0.11.

As for ENDPEWWKCKNARGQVGLVPKNYV [NCK2], the protein stability index by setting is: under setting [1], 3.52 ± 0.16; under setting [2], 3.54 ± 0.12.

As for ENKENEAFEFKKPVRPVSRGCLHS [CDC25A], the protein stability index was determined as 3.87 ± 0.7 under setting [1] and 3.73 ± 0.52 under setting [2].

For the sequence ENPVGTFHCSMSPGNLEKNRYGDV [PTPN9], the protein stability index by setting is: under setting [1], 3.44 ± 0.35; under setting [2], 3.4 ± 0.38.

As to EPLAEGAAAEFSSLLRRIKGKLFT [SLC35F2], the protein stability index was found to be 2.55 ± 0.33 under setting [1] and 2.65 ± 0.096 under setting [2].

With EQIKTRTEELIVQTKQVYDAVGML [NLN], the protein stability index is, setting by setting: under setting [1], 3.68 ± 0.25; under setting [2], 3.88 ± 0.41.

On to EQKNHTFPRLNRNKYMVTDGAAYI [PLD5], for which the protein stability index came out at 2.85 ± 0.078 under setting [1] and 3.19 ± 0.24 under setting [2].

With ERDRDPCGGSGGGGGGGGGGGGCS [LURAP1L], the protein stability index reads like this: under setting [1], 5.37 ± 0.35; under setting [2], 5.4 ± 0.24.

Consider ERFSSAPCLLGSRVFSQGSHAWEV [TRIM35], for which the protein stability index came out at 2.51 ± 0.36 under setting [1] and 2.46 ± 0.2 under setting [2].

In turn, ESDSRKVAEETPDGAPALCPSPEA [PRKX] registered a protein stability index under setting [1] of 5.69 ± 0.17 and a protein stability index under setting [2] of 5.58 ± 0.3.

ESGKEEGMKIDLIDGKGRGVIATK [KMT5A]: the protein stability index under setting [1] is 5.12 ± 0.41 and the protein stability index under setting [2] was 5.39 ± 0.39.

As to ESSNDFGPYEGGGPVAGLDDSGGP [ZBTB22], the protein stability index stood at 5.03 ± 0.42 under setting [1] and 5 ± 0.13 under setting [2].

Consider ESSPSHDRSRTVSASSTGDLPKAK [SRPK2], for which the protein stability index reads like this: under setting [1], 5.16 ± 0.33; under setting [2], 5.22 ± 0.16.

As for ETFSTLKNWVKELRQHGPPNIVVA [RAB22A], the protein stability index was determined as 2.4 ± 0.69 under setting [1] and 2.36 ± 0.14 under setting [2].

ETNLLLAQKQRLERALDATEVPFS [TEKT4]: the protein stability index came to 4.1 ± 0.29 under setting [1] and 4.21 ± 0.25 under setting [2].

Take ETPMAPVPLGPLGETYCEEHGEKI [TRIM15]: the protein stability index was 5.39 ± 0.2 under setting [1] and 5.38 ± 0.12 under setting [2].

Consider ETYIHLLAMKIKVGSDDLERIEAR [PSD2], for which the protein stability index by setting is: under setting [1], 2.26 ± 0.13; under setting [2], 2.5 ± 0.44.

As to EVKGTLEGDVCGVEPPGPGDTVVQ [PBXIP1], the protein stability index by setting is: under setting [1], 5.48 ± 0.23; under setting [2], 5.37 ± 0.11.

Turning to EVKSSIAGSSTWERYFIPVSCFLT [SLC29A1], the protein stability index reads like this: under setting [1], 2.44 ± 0.37; under setting [2], 2.34 ± 0.36.

In the case of EVYYAKKKRRAQQAPPQDSSNKKE [DYRK1B], the protein stability index runs as follows: under setting [1], 4.45 ± 0.28; under setting [2], 4.77 ± 0.24.

As for EYIVKKLSRQEFLGMVGLFGTIIS [SLC35F2], the protein stability index is, setting by setting: under setting [1], 2.43 ± 0.26; under setting [2], 2.44 ± 0.27.

EYQLYEDIGKGAFSVVRRCVKLCT [CAMK2B]: the protein stability index is 2.45 ± 0.26 under setting [1] and 2.25 ± 0.36 under setting [2].

On to FACPSQALFFKNIMNIIDIVSILP [KCNA4], for which the protein stability index amounted to 3.02 ± 0.073 under setting [1] and 2.85 ± 0.27 under setting [2].

As to FDIQKIMQEKNPVHVIGVEEPSVG [ZNF8], the protein stability index was found to be 4.07 ± 0.39 under setting [1] and 4 ± 0.4 under setting [2].

Sequence FDIRILMAKSVKYTVNFLEAKEGD [CARM1] displayed a protein stability index under setting [1] of 2.27 ± 0.28 and a protein stability index under setting [2] of 2.33 ± 0.33.

For the sequence FDPLRNEYFFDRNRPSFDAILYYY [KCNA1], the protein stability index reads like this: under setting [1], 2.68 ± 0.45; under setting [2], 2.73 ± 0.48.

For FEGDMGAAGGDGELGSPLRRSISS [PSD2], the protein stability index is, setting by setting: under setting [1], 4.81 ± 0.2; under setting [2], 4.94 ± 0.13.

FENPADAKNAAKDMNGKSLHGKAI [RBMY1A1]: the protein stability index turned out to be 4.92 ± 0.14 under setting [1] and 5 ± 0.23 under setting [2].

Consider FFGVFQSFVVLLYILDNETNFVVQ [CLPTM1], for which the protein stability index runs as follows: under setting [1], 3.19 ± 0.33; under setting [2], 2.86 ± 0.42.

Consider FFLRGRLDQLLRHVMNPLETLSIT [PRAME], for which, under setting [2], the protein stability index was 2.1 ± 0.52.

FFSKRFKSAAMLAVFAVSAVVHEY [SOAT1]: the protein stability index reads like this: under setting [1], 2.35 ± 0.9; under setting [2], 3.06 ± 0.41.

Turning to FHYIIEQGVCYLVLCEAAFPKKLA [SEC22B], the protein stability index reads like this: under setting [1], 3.01 ± 0.71; under setting [2], 2.68 ± 0.63.

Take FIAGLCVFIISTLAIDFIDEGRLL [SOAT2]: the protein stability index reads like this: under setting [1], 2.81 ± 0.6; under setting [2], 3.01 ± 0.33.

For the sequence FIRCSLQCRDLVDEAKKFHLRPEL [KLHL12], the protein stability index by setting is: under setting [1], 2.67 ± 0.8; under setting [2], 2.82 ± 1.4.

Turning to FKLDKKYQRPQDSEDMWGDEDFTF [FBF1], the protein stability index reads like this: under setting [1], 4.12 ± 0.18; under setting [2], 4.14 ± 0.23.

With FKMLDPDGKGKINKEYIKRLLMSQ [MYL5], the protein stability index runs as follows: under setting [1], 2.41 ± 0.28; under setting [2], 2.63 ± 0.3.

Regarding FLDNGYGHCLLDKPEAPLHLPVTF [ADAMTS4], the protein stability index is, setting by setting: under setting [1], 2.07 ± 0.37; under setting [2], 2.16 ± 0.14.

For FLQRCLESPFSRKLDLWSFLDIPR [NET1], the protein stability index amounted to 2.45 ± 0.47 under setting [1] and 2.1 ± 0.18 under setting [2].

Regarding FLTLEKFTIHNYSHSRERPYKCVQ [PLAGL1], the protein stability index reads like this: under setting [1], 2.68 ± 0.26; under setting [2], 2.13 ± 0.24.

Regarding FLVFVIVLFFIYHFMQAEEGNPF [EMD], the protein stability index (treatment: DMSO, c terminus: native) was 2.94 ± 0.44 and the protein stability index (treatment: MLN4924 1 uM, 8 h, c terminus: native) was 2.83 ± 0.17.

Turning to FMPQGAGGHTREARIQTLEPDNWM [RSAD1], the protein stability index by setting is: under setting [1], 3.27 ± 0.33; under setting [2], 3.11 ± 0.29.

In turn, FNFVSTPKCSCGQLAAVHLSKSRT [RNF180] yielded a protein stability index under setting [1] of 2.14 ± 0.43 and a protein stability index under setting [2] of 2.05 ± 0.26.

As for FNLFCQKRFDESMQVFAKLGTDPT [VPS39], the protein stability index is, setting by setting: under setting [1], 2.68 ± 0.36; under setting [2], 2.68 ± 0.11.

As for FPDVPLGIFLFCVCVIAIGVVQAL [TMEM175], the protein stability index under setting [1] stood at 2.63 ± 0.62 and the protein stability index under setting [2] is 2.28 ± 1.2.

For the sequence FPRMLLVDRLPGLQGALDLLAVLC [ZSWIM9], the protein stability index reads like this: under setting [1], 2.29 ± 0.18; under setting [2], 2.25 ± 0.084.

FQELAGKELCAMSEEQFRQRSPLG [SPDEF]: the protein stability index reads like this: under setting [1], 3.1 ± 0.42; under setting [2], 3.59 ± 0.33.

As for FQRAMHDYNQAEMKQRDNCKIRIQ [STX11], the protein stability index by setting is: under setting [1], 3.08 ± 0.33; under setting [2], 3.44 ± 0.37.

As to FRCSVCSRQLLPGDEFSLREHELL [ISL2], the protein stability index reads like this: under setting [1], 2.39 ± 0.4; under setting [2], 2.24 ± 0.59.

Take FRHDRLRFRDFVDALEDSLEEVAV [PBXIP1]: the protein stability index under setting [1] was 3.04 ± 0.47 and the protein stability index under setting [2] stood at 3.48 ± 0.3.

Consider FRIILGDFDYNAIDNANRILGPAY [PKD2L1], for which the protein stability index was 2.74 ± 0.55 under setting [1] and 2.62 ± 0.55 under setting [2].

In turn, FSGQIRLNEDTIQDVVQAADLLLL [GAN] gave a protein stability index under setting [1] of 2.27 ± 0.24 and a protein stability index under setting [2] of 2.3 ± 0.43.

Sequence FSLFGDISVLQQQGSLSNTYLSKV [FBXO33] returned a protein stability index under setting [1] of 2.12 ± 0.38 and a protein stability index under setting [2] of 2.13 ± 0.096.

For the sequence FSPDFTLRNTLKSTSEDSLVKQEC [FAN1], the protein stability index by setting is: under setting [1], 2.67 ± 0.58; under setting [2], 3.43 ± 0.85.

As to FSQLEDKFPGQSSFLWQRGRKFLQ [TOR1AIP2], the protein stability index runs as follows: under setting [1], 2.69 ± 0.22; under setting [2], 2.75 ± 0.34.

As for FTIHNYSHSRERPYKCVQPDCGKA [PLAGL1], the protein stability index by setting is: under setting [1], 2.86 ± 0.45; under setting [2], 2.89 ± 0.37.

With FVQILLALHHVHTHLILHRDLKTQ [NEK8], the protein stability index runs as follows: under setting [1], 2.98 ± 0.064; under setting [2], 3.01 ± 0.2.

For the sequence FVSRYKLMRHMATHSPQKSHQCAH [PLAGL1], the protein stability index by setting is: under setting [1], 2.7 ± 0.37; under setting [2], 2.55 ± 0.38.

As to FWDLFRSKDNMRTRIMIGLTLVFF [SLC2A12], the protein stability index under setting [1] was 2.53 ± 0.55 and the protein stability index under setting [2] was found to be 2.67 ± 0.39.

On to FYFKLTDLYKKVKKNSSPPLSLYG [CRY1], for which the protein stability index was found to be 2.7 ± 0.51 under setting [1] and 2.69 ± 0.49 under setting [2].

In the case of GAGLPQFQSISLRKIQFNFPYFRS [CLCN6], the protein stability index amounted to 2.13 ± 0.26 under setting [1] and 2.21 ± 0.41 under setting [2].

With GAIAQSSIYPMEVLKTRMALRKTG [SLC25A25], the protein stability index stood at 3.54 ± 0.11 under setting [1] and 3.74 ± 0.28 under setting [2].

On to GALYGITLIPTCKFYTWLWGVFYY [SCD], for which the protein stability index under setting [1] was found to be 2.39 ± 0.41.

Source of the values: the supplement of paper PMC10567573.
